Reference: US20260139239

Assays:
[1] = molecular target: T1, Fluorogenic peptide substrate ENLYFQEGGK with E at P1'
T1 chain: ENLYFQEGGK

[2] = molecular target: T2, Fluorogenic peptide substrate ENLYFQGGGK with G at P1'
T2 chain: ENLYFQGGGK

[3] = molecular target: T3, Fluorogenic peptide substrate ENLYFQIGGK with I at P1'
T3 chain: ENLYFQIGGK

[4] = molecular target: T4, Fluorogenic peptide substrate ENLYFQKGGK with K at P1'
T4 chain: ENLYFQKGGK

[5] = molecular target: T5, Fluorogenic peptide substrate ENLYFQLGGK with L at P1'
T5 chain: ENLYFQLGGK

[6] = molecular target: T6, Fluorogenic peptide substrate ENLYFQRGGK with R at P1'
T6 chain: ENLYFQRGGK

[7] = molecular target: T7, Fluorogenic peptide substrate ENLYFQTGGK with T at P1'
T7 chain: ENLYFQTGGK

[8] = molecular target: T8, Fluorogenic peptide substrate ENLYFQVGGK with V at P1'
T8 chain: ENLYFQVGGK

B1: TEV protease variant P1-M218F (SEQ ID NO:1 with Q74L, S135G, I138T, S153N, R203G and M218F) (protein)
chain: GESLFKGPRDYNPISSSICHLTNESDGHTTSLYGIGFGPFIITNKHLFRRNNGTLLVQSLHGVFKVKDTTTLQLHLVDGRDMIIIRMPKDFPPFPQKLKFREPQREERICLVTTNFQTKSMSSMVSDTSCTFPSGDGTFWKHWIQTKDGQCGNPLVSTRDGFIVGIHSASNFTNTNNYFTSVPKNFMELLTNQEAQQWVSGWGLNADSVLWGGHKVFFNKPEEPFQPVKEATQLMN
For B1, the Km (Michaelis Menten kinetics, fluorogenic peptide cleavage) [1] was 1.5 µM, the Km (Michaelis Menten kinetics, fluorogenic peptide cleavage) [2] was 2.9 µM and the Km (Michaelis Menten kinetics, fluorogenic peptide cleavage) [3] was 5.3 µM. It also gave a Km (Michaelis Menten kinetics, fluorogenic peptide cleavage) [4] of 7.4 µM, a Km (Michaelis Menten kinetics, fluorogenic peptide cleavage) [5] of 2.2 µM and a Km (Michaelis Menten kinetics, fluorogenic peptide cleavage) [6] of 14.5 µM. The Km (Michaelis Menten kinetics, fluorogenic peptide cleavage) [7] was 1.1 µM and the Km (Michaelis Menten kinetics, fluorogenic peptide cleavage) [8] was 2.5 µM.

B2: TEV protease double mutant DM (SEQ ID NO:1 with S153N and R203G) (protein)
chain: GTHHHHHHGSGSGTGESLFKGPRDYNPISSSICHLTNESDGHTTSLYGIGFGPFIITNKHLFRRNNGTLLVQSLHGVFKVKDTTTLQQHLVDGRDMIIIRMPKDFPPFPQKLKFREPQREERICLVTTNFQTKSMSSMVSDTSCTFPSSDGIFWKHWIQTKDGQCGNPLVSTRDGFIVGIHSASNFTNTNNYFTSVPKNFMELLTNQEAQQWVSGWGLNADSVLWGGHKVFMNKPEEPFQPVKEATQLMN
For B2, the Km (Michaelis Menten kinetics, fluorogenic peptide cleavage) [1] was 41 µM, the Km (Michaelis Menten kinetics, fluorogenic peptide cleavage) [2] was 13.7 µM and the Km (Michaelis Menten kinetics, fluorogenic peptide cleavage) [3] was 45.9 µM. For the same protein, the Km (Michaelis Menten kinetics, fluorogenic peptide cleavage) [4] was 13.8 µM, the Km (Michaelis Menten kinetics, fluorogenic peptide cleavage) [5] was 23.2 µM and the Km (Michaelis Menten kinetics, fluorogenic peptide cleavage) [6] was 47.2 µM. It also gave a Km (Michaelis Menten kinetics, fluorogenic peptide cleavage) [7] of 7 µM and a Km (Michaelis Menten kinetics, fluorogenic peptide cleavage) [8] of 45.8 µM.
